From US20140171373

What was measured:
[1] = target: human tauP301L, full-length (from Tg4510 / rTg4510 mouse brain), P10636
[2] = target: human wild-type tau (tauWT), full-length, P10636
[3] = target: T1, z-VAD-fmk (benzyloxycarbonyl-Val-Ala-Asp-fluoromethylketone)
T1 chain: VAD

Sequence of human wild-type tau (tauWT), full-length, P10636 (P10636 other isoform, or with tags, fused parts or gaps): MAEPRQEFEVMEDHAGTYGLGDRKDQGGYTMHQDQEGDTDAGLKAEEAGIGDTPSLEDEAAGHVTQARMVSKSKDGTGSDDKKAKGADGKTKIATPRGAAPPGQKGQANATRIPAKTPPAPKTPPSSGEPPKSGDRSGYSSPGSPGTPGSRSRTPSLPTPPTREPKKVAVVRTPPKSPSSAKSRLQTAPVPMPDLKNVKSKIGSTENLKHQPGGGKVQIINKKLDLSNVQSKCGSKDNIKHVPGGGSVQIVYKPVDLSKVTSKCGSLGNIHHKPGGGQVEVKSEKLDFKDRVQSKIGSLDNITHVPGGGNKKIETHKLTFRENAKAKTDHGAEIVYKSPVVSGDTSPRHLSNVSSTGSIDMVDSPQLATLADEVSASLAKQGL
Sequence of human tauP301L, full-length (from Tg4510 / rTg4510 mouse brain), P10636 (P10636 whole entry, looked up): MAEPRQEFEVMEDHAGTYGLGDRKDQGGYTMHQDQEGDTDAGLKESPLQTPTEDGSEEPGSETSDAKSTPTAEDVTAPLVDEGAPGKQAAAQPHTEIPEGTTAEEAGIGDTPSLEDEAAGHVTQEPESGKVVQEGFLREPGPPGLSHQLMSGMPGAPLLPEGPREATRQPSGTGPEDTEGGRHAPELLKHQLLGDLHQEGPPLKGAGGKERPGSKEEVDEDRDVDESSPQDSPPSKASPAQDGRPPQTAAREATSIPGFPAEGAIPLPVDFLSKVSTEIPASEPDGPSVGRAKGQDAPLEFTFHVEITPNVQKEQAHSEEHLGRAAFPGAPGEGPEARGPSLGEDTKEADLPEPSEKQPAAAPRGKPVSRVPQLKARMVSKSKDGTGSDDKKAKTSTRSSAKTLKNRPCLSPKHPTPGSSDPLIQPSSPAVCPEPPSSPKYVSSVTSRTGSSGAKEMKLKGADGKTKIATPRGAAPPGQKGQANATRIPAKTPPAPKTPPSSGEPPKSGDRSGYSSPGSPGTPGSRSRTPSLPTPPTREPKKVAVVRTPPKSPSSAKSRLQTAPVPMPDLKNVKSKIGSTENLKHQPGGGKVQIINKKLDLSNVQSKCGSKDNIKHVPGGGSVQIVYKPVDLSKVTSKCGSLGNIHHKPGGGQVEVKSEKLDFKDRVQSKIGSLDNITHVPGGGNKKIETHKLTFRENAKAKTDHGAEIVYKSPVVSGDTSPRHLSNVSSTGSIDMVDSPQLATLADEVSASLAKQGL

B1: caspase-2 (protein)
chain 1: GPVCLQVKPCTPEFYQTHFQLAYRLQSRPRGLALVLSNVHFTGEKELEFRSGGDVDHSTLVTLFKLLGYDVHVLCDQTAQEMQEKLQNFAQLPAHRVTDSCIVALLSHGVEGAIYGVDGKLLQLQEVFQLFDNANCPSLQNKPKMFFIQACRGDET
chain 2: GKNHAGSPGCEESDAGKEKLPKMRLPTRSDMICGYACLKGTAAMRNTKRGSWYIEALAQVFSERACDMHVADMLVKVNALIKDREGYAPGTEFHRCKEMSEYCSTLCRHLYLFPGHPPT
[1]
  35 kDa fragment on Tau-13 immunoblot after incubation with the caspase: a 35 kDa fragment generated by co-incubating caspase-2 with full-length tau proteins purified from (A) brain lysates of Tg4510 mice expressing human tauP301L
[2]
  35 kDa fragment after incubation with recombinant caspase-2: generated a 35 kDa fragment only in the wild-type tau reaction that comigrates with tau truncation mutant ΔC314
  35 kDa fragment on Tau-13 immunoblot after incubation with the caspase: a 35 kDa fragment generated by co-incubating caspase-2 with full-length tau proteins purified from ... (B) brain lysates of rTg21221 mice expressing human wild-type tau (tauWT) ... or (C) synthetic human tauWT
tauD314E, P10636
Sequence of tauD314E, P10636 (P10636 whole entry, looked up, the tested form may be a part): as the sequence (P10636 whole entry, looked up) above
  35 kDa fragment after incubation with recombinant caspase-2: generated a 35 kDa fragment only in the wild-type tau reaction (tauD314E: none)
tauD314G, P10636
Sequence of tauD314G, P10636 (P10636 whole entry, looked up, the tested form may be a part): as the sequence (P10636 whole entry, looked up) above
  35 kDa fragment after incubation with recombinant caspase-2: generated a 35 kDa fragment only in the wild-type tau reaction (tauD314G: none)
[3]
  cleavage of tau by the caspase, Tau-13 immunoblot: 50 µM z-VAD-fmk ... (+inhibitor), a general caspase inhibitor, blocked all cleavage
  cleavage of the FITC peptide substrate, LabChip: Caspase inhibitor blocks caspase-2-mediated cleavage of Asp314 peptide substrate
